The target of data set [1] is PARP1 full-length (human, UniProt P09874 2-1014, V762A). Put plainly: NMR; 35.5 uM protein, 40 uM DNA; 15N-1H TROSY, 25 C; EMSA: 20 mM HEPES-KOH pH 7.6, 5 mM MgCl2, 1 mM DTT, 20% glycerol, 1 h room temperature, 6% native PAGE; NMR: 10 mM sodium phosphate, 222 mM NaCl, 2.7 mM KCl, 2. The note with it: protein: recombinant; tags: N-terminal His6 (MKHHHHHHKMQ); dumbbell: two hairpins, mimics single-strand break. For orientation: Mobility shift assays separate free from complexed probe on a gel.
Chain of PARP1 full-length (P09874 2-1014 V762A): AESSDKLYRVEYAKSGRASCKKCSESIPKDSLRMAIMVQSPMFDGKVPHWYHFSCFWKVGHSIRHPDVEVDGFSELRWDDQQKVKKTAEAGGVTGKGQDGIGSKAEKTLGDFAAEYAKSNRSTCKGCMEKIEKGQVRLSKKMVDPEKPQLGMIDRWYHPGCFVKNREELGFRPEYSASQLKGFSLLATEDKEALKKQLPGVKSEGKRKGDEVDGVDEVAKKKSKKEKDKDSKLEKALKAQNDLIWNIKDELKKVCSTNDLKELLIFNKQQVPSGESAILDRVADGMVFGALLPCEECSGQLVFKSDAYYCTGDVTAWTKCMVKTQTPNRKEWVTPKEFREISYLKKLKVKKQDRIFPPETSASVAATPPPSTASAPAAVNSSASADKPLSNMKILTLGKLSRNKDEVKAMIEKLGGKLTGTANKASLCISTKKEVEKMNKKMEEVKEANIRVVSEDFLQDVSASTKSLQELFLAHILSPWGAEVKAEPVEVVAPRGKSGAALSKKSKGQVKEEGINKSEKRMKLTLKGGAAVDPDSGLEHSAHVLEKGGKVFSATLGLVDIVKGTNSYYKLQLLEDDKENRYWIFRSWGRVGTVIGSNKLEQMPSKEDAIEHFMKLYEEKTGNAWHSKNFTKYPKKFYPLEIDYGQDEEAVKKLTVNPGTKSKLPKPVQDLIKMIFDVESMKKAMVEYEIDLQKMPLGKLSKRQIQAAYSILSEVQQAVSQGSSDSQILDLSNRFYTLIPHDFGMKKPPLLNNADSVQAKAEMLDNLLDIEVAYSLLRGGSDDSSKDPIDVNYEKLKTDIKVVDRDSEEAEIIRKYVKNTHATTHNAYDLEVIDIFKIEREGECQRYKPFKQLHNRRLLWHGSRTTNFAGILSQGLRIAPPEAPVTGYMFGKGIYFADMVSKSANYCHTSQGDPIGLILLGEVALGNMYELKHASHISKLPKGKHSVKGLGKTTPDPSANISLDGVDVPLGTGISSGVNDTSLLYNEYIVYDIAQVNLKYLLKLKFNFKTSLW

Data set [2] deals with T1, PARP14 WWE-ART (human, UniProt Q460N5 1459-1801).
T1 sequence: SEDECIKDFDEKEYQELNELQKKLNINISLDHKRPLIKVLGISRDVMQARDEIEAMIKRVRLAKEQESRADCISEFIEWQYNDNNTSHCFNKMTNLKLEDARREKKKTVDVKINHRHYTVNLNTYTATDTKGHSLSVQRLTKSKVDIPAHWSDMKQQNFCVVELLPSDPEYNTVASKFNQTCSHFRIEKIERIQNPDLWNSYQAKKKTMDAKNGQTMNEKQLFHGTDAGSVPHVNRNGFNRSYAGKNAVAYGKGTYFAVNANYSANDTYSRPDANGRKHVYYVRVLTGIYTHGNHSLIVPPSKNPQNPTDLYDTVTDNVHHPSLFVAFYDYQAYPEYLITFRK
The experiment in a line: EMSA; 0.5 uM RNA, 1-5 uM protein, 5 mM Mg2+; EMSA: 20 mM HEPES-KOH pH 7.6, 5 mM MgCl2, 1 mM DTT, 20% glycerol, 1 h room temperature, 6% native PAGE; NMR: 10 mM sodium phosphate, 222 mM NaCl, 2.7 mM KCl, 2. The note with it: protein: recombinant; label: 5' Cy3; single strand.

Data set [3] has as its target T2, PARP14 KH8-WWE-ART (human, UniProt Q460N5 1453-1801).
T2 sequence: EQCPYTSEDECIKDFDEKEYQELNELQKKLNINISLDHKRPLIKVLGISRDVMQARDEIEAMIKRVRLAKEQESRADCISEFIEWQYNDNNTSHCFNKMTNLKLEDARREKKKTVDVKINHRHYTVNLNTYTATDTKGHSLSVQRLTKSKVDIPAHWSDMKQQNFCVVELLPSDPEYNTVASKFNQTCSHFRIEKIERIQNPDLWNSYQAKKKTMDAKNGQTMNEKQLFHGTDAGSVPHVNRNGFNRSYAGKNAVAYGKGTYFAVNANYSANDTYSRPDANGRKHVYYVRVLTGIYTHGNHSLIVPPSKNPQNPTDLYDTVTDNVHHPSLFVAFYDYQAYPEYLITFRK
Put plainly: EMSA; 0.5 uM RNA, 1-5 uM protein, 5 mM Mg2+; possible slight nuclease contamination; EMSA: 20 mM HEPES-KOH pH 7.6, 5 mM MgCl2, 1 mM DTT, 20% glycerol, 1 h room temperature, 6% native PAGE; NMR: 10 mM sodium phosphate, 222 mM NaCl, 2.7 mM KCl, 2. The note with it: protein: recombinant; label: 5' Cy3; single strand.

In data set [4] the target is T3, PARP14 KH1-KH2 (human, UniProt Q460N5 316-468).
T3 sequence: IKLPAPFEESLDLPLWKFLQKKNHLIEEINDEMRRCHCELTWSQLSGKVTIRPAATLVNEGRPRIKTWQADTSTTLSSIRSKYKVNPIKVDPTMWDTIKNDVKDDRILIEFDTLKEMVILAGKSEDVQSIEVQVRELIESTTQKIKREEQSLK
Put plainly: EMSA; 0.5 uM RNA, 1-5 uM protein, 5 mM Mg2+; efficient binding at micromolar concentrations; EMSA: 20 mM HEPES-KOH pH 7.6, 5 mM MgCl2, 1 mM DTT, 20% glycerol, 1 h room temperature, 6% native PAGE; NMR: 10 mM sodium phosphate, 222 mM NaCl, 2.7 mM KCl, 2. Particulars: protein: recombinant; label: 5' Cy3; single strand.

Consider GCTGGCTTCGTAAGAAGCCAGCTCGCGGTCAGCTTGCTGACCGCG (structured_DNA, 5' phosphate) [45-nt DNA dumbbell], for which, in data set [1], the binding result was “binds”.

With GUGGCGCGGAGACUUAGAGAA (ssRNA) [E21 RNA], the figures for the binding result in data set [2], in data set [3] and in data set [4] were “no binding”, “binds” and “binds”, respectively.

The values above are taken from article PMC10450202, “Updated protein domain annotation of the PARP protein family sheds new light on biological function”.
